Laboratory results taken from patent US20220265819A1 (GEN2 NEUROSCIENCE, published 2022).
Where a chain is given by its changes, count along the chain named. Where no end group is shown, it is not given here.

B1: Clone 8 rabbit monoclonal IgG (antibody, V domains shown)
VH: QSLEESGGRLVAPGTPLTLTCTVSGFSLSSYDMSWVRQAPGRGLEWIGTISSSYRTYYASWAKGRFTISKTSSTTVDLKMTSLTTEDTATYFCASSGIWGPGTLVTVSL
VL: AQVLTQTASPVSAAVGGTVTINCQSSQRVYNNYLAWYQQKPGQPPKRLIYLASTLESGVPSRFSGSGSGTQFTLTISGVVCDDAATYYCAGTYSGSIWAFGGGTEVVVKG
notes: Rabbit IgG expressed in HEK293F; also called P2-F3; H2
B2: Clone 5 rabbit monoclonal IgG (antibody, V domains shown)
VH: B1 VH
VL: B1 VL
notes: Rabbit IgG expressed in HEK293F; also called P1-B2; A1
B3: Clone 7 rabbit monoclonal IgG (antibody, V domains shown)
VH: B1 VH with L3V, A12T, R42K, S51G, S52R, S53Y, R55N, S60T
VL: AQVLTQTASPVSAAVGGTVTINCQSSQTVYNNNYLSWYQQKPGQPPKRLIYLASTLESGVPSRFSGSGSGTQFTLTISGVVCDDAATYYCAGTYSGSIWAFGGGTEVVVKG
notes: Rabbit IgG expressed in HEK293F; also called P1-D10; D2
B4: Clone 1 rabbit monoclonal IgG (antibody, V domains shown)
VH: QSLEESGGGLVKPGGTLTLTCTVSGFSLNNYDMSWVRQAPGKGLEWIGTVSTTYRRYYASWAKGRFTISKTSSTTVDLKMTSLTTEDTATYFCAASGIWGPGTLVTVSL
VL: B1 VL with A8T, N31S, Y50F, G78D, V79L, V80E, S94T
notes: Rabbit IgG expressed in HEK293F (pRab293); also called P1-D4; #28
B5: Clone 3 rabbit monoclonal IgG (antibody, V domains shown)
VH: B1 VH with L3V, A12T, V23A, S30R, R42K, S52G, R55N, A59M
VL: B1 VL with N31S, A35S, K46R, Y50W
notes: Rabbit IgG expressed in HEK293F; also called P2-B12; D4
B6: Clone 9 human scFv (phage displayed) (scFv, V domains shown)
VH: VQLVESGGGFVQPGGSLRLSCAASGFTFTDYGIHWVRQAPGKGLEWVAVISHDGSHKYYSDSVKGRSTISRDSSDNTVSLQLDGLRADDTALYYCAKDLPQTGALDFWGRGTLITVSS
VL: MTQSPSSLSASVGDRVTITCQASQDISNYLNWYQQKPGKAPKLLIYDASNLETGVPSRFSGSGSGTDFTFTISSLQPEDFATYYCQQANSFPITFGQGTRLEIK
notes: also called rx2; E5
B7: Clone 11 human scFv (phage displayed) (scFv, V domains shown)
VH: QVQLQQWGGGLVKPSETLSLTCGVSGGSFNDYYWTWIRQPQGKGLEWIGEINHVGSSRYNPSLGSRVTMSVDTSKSQFSLTLTAVTAADTAIYYCTRGRKTRRVKFFSRYSRDWFDPWGQGSRVTVSS
VL: VMTQSPATLSVSPGERATLSCRASQSVSSNLAWYQQKPGQAPRLLIYGASSRATGIPDRFSGSGSGTDFTLTISRLEPEDFATYYCQQLNSYPFTFGPGTKVDIK
notes: also called rx7; C6
B8: Clone 12 human scFv (phage displayed) (scFv, V domains shown)
VH: B7 VH
VL: MTQSPSSLSASVGDRVTITCRASQGISNYLAWYQQKPGKVPKLLIYAASTLQSGVPSRFSGSGSGTDFTLTISSLQPEDVATYYCQKYNSAPFTFGPGTKVDIK
notes: also called rx8; H11
B9: Clone 13 human scFv (phage displayed) (scFv, V domains shown)
VH: ESGGGVVKPGGSLRLACEASGFTFNKYAMSWVRQAPGKGLEWVSGNSGSGNSTYYADSVKGRFTISRDNSKNILYLDMNNLRAEDTALYYCAKTRGAGRRKPYGMDVWGHGTTVTVSS
VL: VMTQSPSTLSLSPGERATLSCRASQSVANNYLAWYQHKPGQAPRVLIYGASSRATGIPDRFSGSGSGTDFTLTISRLEPEDFAVYYCQQYGSSPRTFGGGTKLEIK
notes: also called rx9; D12

Each binder was assayed against T1, Bovine serum albumin (bovine, UniProt P02769 25-607) (assay: ELISA on 1% BSA, HEK293F supernatant, anti-rabbit IgG-HRP, n=1).
T1 construct: Negative control antigen in ELISA; also called BSA
T1 sequence (P02769 25-607 limits assumed): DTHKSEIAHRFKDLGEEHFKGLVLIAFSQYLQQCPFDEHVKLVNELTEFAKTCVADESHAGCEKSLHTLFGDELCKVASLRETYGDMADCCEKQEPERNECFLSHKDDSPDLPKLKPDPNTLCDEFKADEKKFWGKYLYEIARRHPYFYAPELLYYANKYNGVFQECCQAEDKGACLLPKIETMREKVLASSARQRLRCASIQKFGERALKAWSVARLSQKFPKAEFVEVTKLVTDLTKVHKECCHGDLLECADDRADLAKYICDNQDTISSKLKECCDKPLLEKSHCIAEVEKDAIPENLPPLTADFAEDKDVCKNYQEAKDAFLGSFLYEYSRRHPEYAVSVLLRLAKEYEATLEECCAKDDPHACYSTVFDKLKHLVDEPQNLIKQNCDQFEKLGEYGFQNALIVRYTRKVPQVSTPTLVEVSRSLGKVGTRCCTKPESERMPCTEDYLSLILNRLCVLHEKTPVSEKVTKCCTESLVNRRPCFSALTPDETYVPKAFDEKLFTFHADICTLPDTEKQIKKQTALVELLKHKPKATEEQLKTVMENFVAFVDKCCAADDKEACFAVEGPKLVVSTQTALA
Experimental: FIG. 9. A panel of anti-tau IgG bind to linear immunogen peptide and full length recombinant 2N4R tau in ELISA format. […] Binding of anti-tau IgG was detected using an HRP-conjugated anti-rabbit secondary antibody and data shown are from a representative experiment (n=1).
(§1) Antigen was removed from wells and the plates were then blocked for 1 hour at RT with 5% dried milk in 1×TBS. Blocking solution was removed. HEK293F cell supernatant (10 μg/mL, to 0.0001 μg/mL in 1% BSA/1×TBS) was added to relevant wells, and plates were incubated for 1 hour at RT with gentle shaking. Plates were then washed four times with TBS/0.1% Tween (TBST). Anti-rabbit IgG-HRP antibody (Sigma. St Louis, Mo., USA), diluted 1:5000 in 5% milk/TBS, was added to each well and plates were incubated for 1 hour at RT with gentle shaking before being washed four times with TBST. 3,3′,5,5′-tetramethylbenzidine (TMB) ELISA solution was added to each well and plates were incubated for 15 mins at RT. An equal volume of 1 M sulfuric acid was added to each well and OD was measured at 450 nm.
B1: no binding (tested: supernatant 1:50). B2: no binding (tested: supernatant 1:50). B3: no binding (tested: supernatant 1:50). B4: no binding (tested: supernatant 1:50). B5: no binding (tested: supernatant 1:50).

The binders below were run against T2, full length recombinant human 2N4R tau (amino acids 1-441) (human, UniProt P10636 1-758) (assay: ELISA, purified IgG on coated tau, half maximal signal).
T2 construct: Bought (rPeptide); recombinant, non-phosphorylated; also called recombinant tau
T2 sequence (P10636 other isoform, or with tags, fused parts or gaps limits assumed): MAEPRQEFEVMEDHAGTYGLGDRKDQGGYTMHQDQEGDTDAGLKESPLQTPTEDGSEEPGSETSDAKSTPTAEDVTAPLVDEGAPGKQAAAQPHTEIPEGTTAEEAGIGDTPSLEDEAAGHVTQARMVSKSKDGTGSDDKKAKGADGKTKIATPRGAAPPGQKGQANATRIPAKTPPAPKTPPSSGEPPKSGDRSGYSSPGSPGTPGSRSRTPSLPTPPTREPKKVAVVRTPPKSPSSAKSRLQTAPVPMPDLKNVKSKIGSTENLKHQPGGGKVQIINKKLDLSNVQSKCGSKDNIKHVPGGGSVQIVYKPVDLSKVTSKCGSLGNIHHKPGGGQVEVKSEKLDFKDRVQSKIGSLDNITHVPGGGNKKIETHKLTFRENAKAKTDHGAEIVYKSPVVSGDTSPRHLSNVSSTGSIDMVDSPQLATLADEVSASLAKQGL
Experimental: as §1, with “13.1 ELISA analyses: ELISA plates were coated with antigen (full length tau, 100 ng/well; or 1% BSA in 1×TBS) in 1× carbonate-bicarbonate buffer for 1 hour at 37° C. Antigen” for “Antigen”, “1×TBS (200 μl/well).” for “1×TBS.”, “removed, diluted IgG” for “removed. HEK293F cell supernatant”, “(Sigma,” for “(Sigma.”, “TBST. 25 μL” for “TBST.”, “RT, an” for “RT. An”
Data were plotted as log concentration of IgG against ELISA signal (OD) and EC₅₀ values were calculated using a four parameter logistic equation with variable slope using GraphPad Prism (GraphPad Software Inc, La Jolla, Calif., USA).
B4 gave an EC50 of 0.73 nM.

The binders below were run against T2, full length recombinant human 2N4R tau … (assay: ELISA, HEK293F supernatant on coated tau).
Experimental: as §1
In the case of B1, the “OD (ELISA)” value is reported as 0.3 OD. B2 was tested, and the “OD (ELISA)” value was 0.3 OD. In the case of B3, the “OD (ELISA)” value is reported as 0.3 OD. With B4 the “OD (ELISA)” value was 0.3 OD. With B5 the “OD (ELISA)” value was 0.3 OD.

Each binder was assayed against T2, full length recombinant human 2N4R tau … (assay: phage ELISA, tau 100 ng/well, phage supernatant 1:25, anti-M13-HRP, n=1).
Text: (§2) FIG. 7. A panel of phage display-derived anti-tau scFv bind to linear immunogen peptide and full length 2N4R tau in phage ELISA. Phage expressing scFv clones bind to the short linear peptide (SEQ ID NO: 13) (A) conjugated to BSA (black bars) or transferrin (white bars) and to full length recombinant 2N4R tau (B). […] Binding of phage was detected using an HRP-conjugated anti-alpha-M13 antibody and data shown are from a representative experiment (n=1).
(§3) 10.1 Phage ELISA: Supernatants prepared from bacterial cultures infected with phage displaying scFv were tested for binding to full length recombinant 2N4R tau (100 ng/well), target peptide (SEQ ID NO: 13) conjugated to BSA or transferrin (1 μg/well) or BSA (1% in TBS) using standard methods. Antigen was coated onto ELISA plates, then removed, and plates were blocked for 1 h with 5% dried milk in TBS. Samples were diluted 1:25 in 1% BSA/TBS then added to the ELISA plate for 1 h at room temperature (RT). Plates were then washed ×4 with TBS/0.1% Tween (TBST). Alpha-M13-HRP antibody (Abcam, Cambridge, UK) was added (1:5000 dilution in 5% milk/TBS) and incubated for 1 h at RT before washing ×4. TMB ELISA solution was added to each well for 10 min at RT, followed by 1 M sulphuric acid. OD was then measured at 450 nm.
B6: binds. B7: binds. B8: binds.

The binders below were run against T1, Bovine serum albumin (assay: phage ELISA).
Experimental: as §3
B6: no binding (tested: 1:25 phage supernatant). B7: no binding (tested: 1:25 phage supernatant). B8: no binding (tested: 1:25 phage supernatant). B9: no binding (tested: 1:25 phage supernatant).

Biological target: T3, antigen peptide [C]-SPVVSGDTSPRHLSN-amide (tau 396-410 with N-terminal cysteine) (human)
T3 construct: Not phosphorylated; Coated free, or conjugated through the N-terminal Cys to BSA or transferrin (phage ELISA); The N-terminal Cys is not part of tau; also called target peptide; short linear peptide
T3 peptide: CSPVVSGDTSPRHLSN-NH2
Assay: phage ELISA, phage supernatant 1:25, anti-M13-HRP, n=1
Text: as §2, §3
B6: binds. B7: binds. B8: binds.
